These results are taken from PMC12207590, “Substrate Specificity of the Organic Cation Transporters MATE1 and MATE2K and Functional Overlap with OCT1 and OCT2” (Journal of Medicinal Chemistry, 2025).

“And” between values parts separate entries of the source, which are not always exact repeats. Identical values can stand only once.

The subject of the data set is CN(C)CCc1c[nH]c2ccc(C[C@H]3COC(=O)N3)cc12. Description: cells, lysate or membranes. The conditions noted are these: other: HEK293, 1 min, net uptake; pH 7.4; 37.0 °C.

Sequence of MATE2K (Homo sapiens) (chain, as listed by the source): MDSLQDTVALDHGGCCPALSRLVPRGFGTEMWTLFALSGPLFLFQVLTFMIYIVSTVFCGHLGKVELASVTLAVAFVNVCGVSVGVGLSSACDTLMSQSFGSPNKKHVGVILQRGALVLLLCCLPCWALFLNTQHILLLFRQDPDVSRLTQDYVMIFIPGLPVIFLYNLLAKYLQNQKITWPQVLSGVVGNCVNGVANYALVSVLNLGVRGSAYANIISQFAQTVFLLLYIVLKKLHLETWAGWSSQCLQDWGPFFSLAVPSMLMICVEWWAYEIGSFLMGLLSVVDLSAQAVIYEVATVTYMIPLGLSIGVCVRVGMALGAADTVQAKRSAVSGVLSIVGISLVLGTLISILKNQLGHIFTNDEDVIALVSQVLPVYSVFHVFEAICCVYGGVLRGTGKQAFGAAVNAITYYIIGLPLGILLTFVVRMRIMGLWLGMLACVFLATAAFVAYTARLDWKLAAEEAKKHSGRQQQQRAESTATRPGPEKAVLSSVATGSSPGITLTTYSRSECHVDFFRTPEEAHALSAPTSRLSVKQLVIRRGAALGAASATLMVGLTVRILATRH

Usually Km stands for the concentration of substrate that gives half-maximal velocity. As a reminder, the Vmax is the rate approached at saturating substrate. Take MATE2K (Homo sapiens): the Km is 23.1 µM and 18.3 µM; the Vmax was 0.00074 µmol/min/mg and 0.000992 µmol/min/mg; the Vmax/Km is 32.1 µL/min/mg and 54.2 µL/min/mg.
